Here are results for one protein from ChEMBL document CHEMBL1121725, “Interaction of 1-(5-phospho-beta-D-arabinofuranosyl)-5-substituted-uracils with thymidylate synthetase: mechanism-based inhibition by 1-(5-phospho-beta-D-arabinosyl)-5-fluorouracil” (J Med Chem, 1981).

Usually Km stands for the substrate concentration at which the rate is half of its maximum.

This series deals with thymidylate synthase (Lactobacillus casei). The experiment in a line: Compound was evaluated for the inhibition of dTMP synthetase with respect to dUMP.

B1: Thymidylate synthase (Escherichia coli), C3SWJ7 (protein)
chain: MKQYLELMQKVLDEGTQKNDRTGTGTLSIFGHQMRFNLQDGFPLVTTKRCHLRSIIHELLWFLQGDTNIAYLHENNVTIWDEWADENGDLGPVYGKQWRAWPTPDGRHIDQITTVLNQLKNDPDSRRIIVSAWNVGELDKMALAPCHAFFQFYVADGKLSCQLYQRSCDVFLGLPFNIASYALLVHMMAQQCDLEVGDFVWIGGDTHLYSNHMDQTHLQLSREPRPLPKLIIKRKPESIFDYRFEDFEIEGYDPHPGIKAPVAI
B1: the Km is 2 µM.
